Paper PMC7227406, “Protein Phosphatases Type 2C Group A Interact with and Regulate the Stability of ACC Synthase 7 in Arabidopsis” (Cells, 2020)

Target: T1, GST–ACS7 (Arabidopsis thaliana, UniProt Q9STR4 1-447)
T1 construct: ACS7, 1-aminocyclopropane-1-carboxylate synthase 7, Arabidopsis thaliana; Vector pDEST15; also called recombinant GST–ACS7; N-tagged GST–ACS7; source: E. coli BL21-CodonPlus (DE3)-RIL, purified (Glutathione-Sepharose 4B); not shown: GST, N-terminal, kept
T1 sequence (looked up): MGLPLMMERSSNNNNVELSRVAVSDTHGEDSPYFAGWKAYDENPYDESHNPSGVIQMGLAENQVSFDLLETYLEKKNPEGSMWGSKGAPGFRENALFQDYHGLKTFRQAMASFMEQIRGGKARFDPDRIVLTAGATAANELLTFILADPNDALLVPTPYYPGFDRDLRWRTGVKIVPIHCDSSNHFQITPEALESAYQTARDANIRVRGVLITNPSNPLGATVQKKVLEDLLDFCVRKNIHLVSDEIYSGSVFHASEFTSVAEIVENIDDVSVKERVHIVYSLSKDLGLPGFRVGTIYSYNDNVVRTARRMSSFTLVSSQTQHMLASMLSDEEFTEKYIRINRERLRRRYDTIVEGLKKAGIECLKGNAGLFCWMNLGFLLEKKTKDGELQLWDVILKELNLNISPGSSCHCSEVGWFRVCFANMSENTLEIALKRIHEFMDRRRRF
Experiment: pull-down; GST–ACS7 pre-coupled to Glutathione-Sepharose 4B, preincubated with 1 mg/mL BSA; His-tagged ABI1 or ABI2 added in EBC buffer (100 mM NaCl, 0.5% Nonidet P-40, 100 mM NaF, 200 μM sodium orthovanadate, 50 mM Tris-HCl pH 8.0), 1 h, room temperature; washes with NENT buffer at 100/200/300 mM NaCl; immunoblot with anti-GST and anti-His
Conditions: both partners purified

B1: His–ABI1 (enzyme, Arabidopsis thaliana, UniProt P49597 1-434, looked up)
chain: MEEVSPAIAGPFRPFSETQMDFTGIRLGKGYCNNQYSNQDSENGDLMVSLPETSSCSVSGSHGSESRKVLISRINSPNLNMKESAAADIVVVDISAGDEINGSDITSEKKMISRTESRSLFEFKSVPLYGFTSICGRRPEMEDAVSTIPRFLQSSSGSMLDGRFDPQSAAHFFGVYDGHGGSQVANYCRERMHLALAEEIAKEKPMLCDGDTWLEKWKKALFNSFLRVDSEIESVAPETVGSTSVVAVVFPSHIFVANCGDSRAVLCRGKTALPLSVDHKPDREDEAARIEAAGGKVIQWNGARVFGVLAMSRSIGDRYLKPSIIPDPEVTAVKRVKEDDCLILASDGVWDVMTDEEACEMARKRILLWHKKNAVAGDASLLADERRKEGKDPAAMSAAEYLSKLAIQRGSKDNISVVVVDLKPRRKLKSKPLN
notes: ABI1, group A protein phosphatase type 2C, Arabidopsis thaliana; Vector pDEST17; also called His-tagged ABI1; source: E. coli BL21-CodonPlus (DE3)-RIL, purified (Ni-Sepharose 6 Fast Flow)
binding result: binds

B2: His–ABI2 (enzyme, Arabidopsis thaliana, UniProt O04719 1-423, looked up)
chain: MDEVSPAVAVPFRPFTDPHAGLRGYCNGESRVTLPESSCSGDGAMKDSSFEINTRQDSLTSSSSAMAGVDISAGDEINGSDEFDPRSMNQSEKKVLSRTESRSLFEFKCVPLYGVTSICGRRPEMEDSVSTIPRFLQVSSSSLLDGRVTNGFNPHLSAHFFGVYDGHGGSQVANYCRERMHLALTEEIVKEKPEFCDGDTWQEKWKKALFNSFMRVDSEIETVAHAPETVGSTSVVAVVFPTHIFVANCGDSRAVLCRGKTPLALSVDHKPDRDDEAARIEAAGGKVIRWNGARVFGVLAMSRSIGDRYLKPSVIPDPEVTSVRRVKEDDCLILASDGLWDVMTNEEVCDLARKRILLWHKKNAMAGEALLPAEKRGEGKDPAAMSAAEYLSKMALQKGSKDNISVVVVDLKGIRKFKSKSLN
notes: ABI2, group A protein phosphatase type 2C, Arabidopsis thaliana; Vector pDEST17; also called His-tagged ABI2; source: E. coli BL21-CodonPlus (DE3)-RIL, purified (Ni-Sepharose 6 Fast Flow)
binding result: binds
